In paper PMC8599861, “Structures of prokaryotic ubiquitin-like protein Pup in complex with depupylase Dop reveal the mechanism of catalytic phosphate formation” (Nature Communications, 2021):

Target: Prokaryotic ubiquitin-like protein Pup from Corynebacterium glutamicum with C-terminal glutamate (Corynebacterium glutamicum) (UniProt Q8NQE0)
Assay: ITC; 25 °C, MicroCal iTC200; 150 µM CgluDop or 200 µM CgluDopGS injected into 15 or 20 µM CgluPupE in the cell; 50 mM Tris-HCl pH 8.0, 300 mM NaCl, 20 mM MgCl2; 1:1 binding model

Chain of Prokaryotic ubiquitin-like protein Pup from Corynebacterium glutamicum with C-terminal glutamate (Corynebacterium glutamicum) (Q8NQE0 whole entry): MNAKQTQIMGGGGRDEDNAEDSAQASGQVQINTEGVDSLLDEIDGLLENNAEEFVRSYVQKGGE

fold tighter affinity than the wild type enzyme: 2.5 fold
Substance: CgluDopGS, Dop-loop variant of Dop from Corynebacterium glutamicum (Dop-loop H43-I77 replaced with (GS)4) (enzyme)
